Data on five molecules can be found in PMC6424025, “Human DNA polymerase delta is a pentameric holoenzyme with a dimeric p12 subunit” (Life Science Alliance, 2019).

Substitutions are numbered along the chain they refer to. Names may count otherwise. Read-outs that look alike come from different tables or passages of the source.

The target of data set [1] is PCNA (Homo sapiens) (UniProt P12004). To be noted: cited from earlier work.
Data set [2] has the same target. To be noted: cited from earlier work. This is another data set of the same source.
Data set [3] deals with the molecule itself. In words: native gel or EMSA; 12% native PAGE, 80 V for 5 h at 4°C, 25 mM Tris base, 192 mM glycine, pH 8.8, Coomassie staining; migration compared with carbonic anhydrase or with the mutant. Background: A gel shift assay detects complexes by their altered migration in electrophoresis.
Data set [4] deals with the molecule itself. As to the kind of experiment: cross-linking; 1-5 μg of protein in 20 mM Hepes pH 7.5, 0.5% formaldehyde, 30 min at 25°C, 12% SDS-PAGE, Coomassie.
Data set [5] deals with the molecule itself. In words: ITC; p12 (10 μM) in the cell, p12 (120 μM) in the syringe, 30°C, 20 mM Hepes pH 7.4, 150 mM NaCl, single-site model; dimer to monomers.
Data set [6] addresses T1, human PCNA, wild type, purified (human, UniProt P12004 1-261).
T1 construct: Proliferating cell nuclear antigen, human; amplified from cDNA of HeLa total RNA; Treated as a trimer in the ITC analysis; also called hPCNA; proliferating cell nuclear antigen; source: E. coli BL21 DE3, purified (expressed as GST fusion, glutathione-sepharose)
In words: ITC; p12 (10 μM) in the cell, PCNA (120 μM) in the syringe, 25°C, 20 mM Hepes pH 7.4, 150 mM NaCl, single-site model; p12 taken as a dimer and PCNA as a trimer. The settings on record: both partners purified.

Chain of PCNA (Homo sapiens) (P12004 whole entry): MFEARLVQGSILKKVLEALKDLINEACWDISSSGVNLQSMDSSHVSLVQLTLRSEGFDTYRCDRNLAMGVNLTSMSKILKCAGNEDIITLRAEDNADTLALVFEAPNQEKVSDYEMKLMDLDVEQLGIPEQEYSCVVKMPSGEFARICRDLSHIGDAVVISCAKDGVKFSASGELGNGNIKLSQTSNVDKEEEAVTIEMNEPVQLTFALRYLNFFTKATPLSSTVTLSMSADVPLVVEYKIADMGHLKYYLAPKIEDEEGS
T1 sequence (P12004 whole entry, the tested form may be a part): as the sequence (P12004 whole entry) above

As usually defined, the Kd is the concentration at which binding is half-saturated. As for “DNA polymerase delta holoenzyme (from UniProt P28340)”, the Kd with PCNA (Homo sapiens) [1] was 7.1 nM. Turning to “DNA polymerase delta core (from UniProt P28340)”, the Kd in the data set with PCNA (Homo sapiens) [2] was 73 nM.

B1: Cdm1 of Schizosaccharomyces pombe, wild type, purified (natural protein, S. pombe, UniProt O59835 1-160, looked up)
chain: MKKRTTQAKKSGQNTNIRDVFPHVVRSNSSQSHIGKKVSSEQSPTPDVTITTKTLDERIKEDDELSKEVEEAWNQIMAERISEPIHCENITKVEFILHHFDTTARYGPYLGMTRMQRWKRAKNFNLNPPETVGKILMLEEADEENRKRESLFYDLQTIPG
notes: Cdm1, fourth subunit of DNA polymerase delta, S. pombe; 160 aa, 18.6 kD; PCR-amplified from genomic DNA; also called wild-type Cdm1; source: E. coli BL21 DE3, purified (bacterial overexpression from pNA716)
Take B1: in data set [3], the binding result is reported as “binds”.

B2: p12 subunit of human DNA polymerase delta, wild type, purified, GST tag cleaved off (natural protein, UniProt Q9HCU8 1-107, looked up)
chain: MGRKRLITDSYPVVKRREGPAGHSKGELAPELGEEPQPRDEEEAELELLRQFDLAWQYGPCTGITRLQRWCRAKQMGLEPPPEVWQVLKTHPGDPRFQCSLWHLYPL
notes: DNA polymerase delta subunit 4 (p12), human; PCR product from pCOLA-hPold234; also called untagged p12; wild-type p12; source: E. coli BL21 DE3, purified (glutathione-sepharose; GST cleaved by PreScission protease); not shown: GST, N-terminal, cleaved
What is called stoichiometry N is a count of units in the complex or per binding partner. For the molecule B2, the “stoichiometry N” value in data set [4] is 2. Besides, in data set [5], the Kd was roughly 146 nM, the dH was -1.82 kcal/mol and the “stoichiometry N” value was roughly 0.6. The same molecule registered a Kd in data set [6] of 10000 nM.

B3: p12 L104A, Y105A mutant, purified, GST tag cleaved off (natural protein, human, UniProt Q9HCU8 1-107, looked up)
chain: B2 chain with L104A, Y105A
notes: DNA polymerase delta subunit 4 (p12), human; PCR product from pCOLA-hPold234; also called PIP-motif p12 mutant; source: E. coli BL21 DE3, purified (glutathione-sepharose; GST cleaved by PreScission protease); not shown: GST, N-terminal, cleaved
As for B3, the “stoichiometry N” value in data set [4] worked out at 2.
